Kd data for one molecule are collected here from publication PMC5851990 (2018).

Assay [1] deals with chicken Ten2^ecto wild type (residues 596-2802) (chicken, UniProt Q9DER5 596-2802). The assay can be described thus: SPR. For orientation: Surface plasmon resonance follows binding to a sensor surface in real time, without labels.
In assay [2] the target is chicken Ten2^ecto P1680L mutant (residues 596-2802) (chicken, UniProt Q9DER5 596-2802, P1680L). Briefly: SPR.

B1: mouse Lphn2^Lec (Latrophilin 2 lectin domain, residues 30-137) (domain or fragment)
chain: ALPFGLVRRELSCEGYSIDLRCPGSDVIMIESANYGRTDDKICDADPFQMENTDCYLPDAFKIMTQRCNNRTQCIVVTGSDVFPDPCPGTYKYLEVQYECVPYSKMLV
modifications: biotinylated enzymatically in vivo at a C-terminal AviTag
With B1, the results for the Kd in assay [1] and in assay [2] were 790 nM and 740 nM, respectively.
